Patent publication US20070207967A1, “Peptide Inhibitors of Matrix Metalloproteinase Activity” (CTT CANCER TARGETING TECHNOLOGIES OY, priority 2004, published 2007)

Tests used:
trypsin-activated MMP-9 = trypsin-activated MMP-9 (Homo sapiens, UniProt P14780); assay: Gelatinase inhibition assay (gelatin degradation), MMP-9; format: biochemical; settings: biotinylated gelatin substrate
Protocol: (§1) Gelatinase inhibition assay. Inhibition of aminophenylmercuric acetate (APMA)-activated MMP-2 and trypsin-activated MMP-9 was performed using biotinylated gelatin as a substrate (15).

[1] = target: T1, aminophenylmercuric acetate (APMA)-activated MMP-2 (Homo sapiens, UniProt P08253); assay: Gelatinase inhibition assay (gelatin degradation), MMP-2; format: biochemical; settings: biotinylated gelatin substrate
T1 sequence (P08253 110-660): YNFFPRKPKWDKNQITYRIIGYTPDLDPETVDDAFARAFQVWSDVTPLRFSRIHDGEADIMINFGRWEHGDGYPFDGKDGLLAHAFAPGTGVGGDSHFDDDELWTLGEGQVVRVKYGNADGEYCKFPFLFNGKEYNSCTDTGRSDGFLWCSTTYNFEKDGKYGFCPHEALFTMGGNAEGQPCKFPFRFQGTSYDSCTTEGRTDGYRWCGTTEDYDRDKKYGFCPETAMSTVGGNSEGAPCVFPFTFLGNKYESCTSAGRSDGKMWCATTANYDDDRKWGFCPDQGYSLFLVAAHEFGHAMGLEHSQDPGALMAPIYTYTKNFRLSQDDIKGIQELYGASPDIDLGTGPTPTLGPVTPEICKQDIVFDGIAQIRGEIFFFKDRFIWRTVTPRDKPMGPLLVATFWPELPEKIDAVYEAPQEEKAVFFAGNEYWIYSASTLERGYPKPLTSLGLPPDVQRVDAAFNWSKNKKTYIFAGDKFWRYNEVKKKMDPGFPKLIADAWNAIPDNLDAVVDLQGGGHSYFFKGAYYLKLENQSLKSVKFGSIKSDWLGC
Protocol: as §1

THP-1 monocytic cells = assay: THP-1 cell migration on GST-LLG-C4; format: cell-based, human; settings: GST-LLG-C4 substratum, 16 h
Protocol: Cell migration and invasion. The cell migration assay was conducted using transwell migration chambers (8 μm pore size, Costar) in 10% serum-containing medium (2,14). Briefly, the membranes were coated on both sides with 40 μg/ml GST or with the β2 integrin ligand peptide […]-GST fusion (GST-LLG-C4) and blocked with complete medium. THP-1 cells (50 000/100 μl) were preincubated with the peptides for 1 h in serum-containing medium. The cells were allowed to migrate for 16 h and were then stained with crystal violet and counted (14). The HT1080 (20 000 cells/I100 μl) invasion assay was performed as the THP-1 migration, except that matrigel coated transwells (BD Biosciences) were used.

HT1080 cells = assay: Pericellular proteolysis (gelatinolysis) of HT1080 cells; format: cell-based, human; settings: HT1080, 48 h, PDBu, fibronectin/FITC-labelled gelatin coating
Protocol: Pericellular proteolysis. Microtiter wells were coated with a mixture of fibronectin (10 μg/ml) and FITC-labelled gelatin (100 μg/ml) followed by saturation with 1% BSA in PBS. HT1080 cells (50 000 in 100 μl 0.1% BSA/DMEM) were incubated in the presence of 20 nM PDBu (4β-phorbol-12,13-dibutyrate, SigmaAldrich) and the peptides or the MMP-2/MMP-9 selective inhibitor InhI (Calbiochem). As a control non-activated cells and medium without the cells were used. Gelatinolysis after 48 hours was measured as the increase of fluorescence from a 50 μl aliquot of the conditioned medium using Wallac Victor^2 reader.

αM integrin I domain = αM integrin I domain (Homo sapiens, UniProt P11215); assay: Pro-MMP-9 binding to αM integrin I domain
Sequence of αM integrin I domain (P11215 150-328 limits assumed): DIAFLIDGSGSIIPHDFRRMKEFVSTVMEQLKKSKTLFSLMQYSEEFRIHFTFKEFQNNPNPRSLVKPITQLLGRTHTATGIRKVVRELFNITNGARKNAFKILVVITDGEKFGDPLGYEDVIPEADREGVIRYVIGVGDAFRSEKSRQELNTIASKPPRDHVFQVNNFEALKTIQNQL
Protocol: Pro-MMP-9 and gelatin binding to leukocyte αM integrin. Pro-MMP-9 binding to the αM I domain in the presence of peptides was studied as described (12). Gelatin binding to the pro-MMP-^9/αMβ2 integrin complex was studied by immobilizing the integrin αMβ2 (12) or αIIbβ3 as a control (Enzyme Research Laboratories, South Bend, Ind.) (1 μg/well) in TBS/1 mM CaCl2/1 mM MgCl2 followed by saturation of the wells with 1% BSA in PB ST. Pro-MMP-9 (100 ng/well) was incubated for 2 h and the unbound pro-MMP-9 was washed away. Biotinylated gelatin (2.5 μg/ml) was allowed to bind for 30 min at room temperature. Bound gelatin was detected with streptavidin-peroxidase.

pro-MMP-9 [2] = target: T2, pro-MMP-9 (Homo sapiens, UniProt P14780); assay: Plasmin/MMP-3-mediated pro-MMP-9 activation in HT1080 cells, zymography; format: cell-based; settings: PDBu-activated HT1080, plasminogen, peptides 200 μM
T2 sequence (P14780 20-707 limits assumed): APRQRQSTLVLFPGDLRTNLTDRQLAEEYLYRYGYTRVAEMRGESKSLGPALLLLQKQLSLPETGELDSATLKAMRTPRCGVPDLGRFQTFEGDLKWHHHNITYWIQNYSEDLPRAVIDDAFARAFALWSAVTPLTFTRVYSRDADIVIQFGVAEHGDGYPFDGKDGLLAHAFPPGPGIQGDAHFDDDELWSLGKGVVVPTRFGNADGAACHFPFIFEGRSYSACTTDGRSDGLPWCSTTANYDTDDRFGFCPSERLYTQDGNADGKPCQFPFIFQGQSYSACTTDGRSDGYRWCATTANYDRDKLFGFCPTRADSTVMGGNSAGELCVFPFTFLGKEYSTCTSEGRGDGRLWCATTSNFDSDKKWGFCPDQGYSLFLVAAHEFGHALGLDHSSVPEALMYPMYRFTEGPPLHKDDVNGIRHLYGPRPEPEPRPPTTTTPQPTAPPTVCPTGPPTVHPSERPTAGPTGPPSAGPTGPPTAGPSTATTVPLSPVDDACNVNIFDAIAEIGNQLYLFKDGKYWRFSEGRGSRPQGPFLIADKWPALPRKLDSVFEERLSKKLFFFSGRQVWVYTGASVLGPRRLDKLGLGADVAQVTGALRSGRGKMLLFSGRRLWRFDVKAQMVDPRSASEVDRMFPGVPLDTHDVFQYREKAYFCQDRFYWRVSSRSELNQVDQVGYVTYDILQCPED
Protocol: (§2) Activation of MMP-9. THP-1 cells (40 000/100 μl) or confluent HT1080 cells were incubated for 16 h in the presence or absence of 2.5 μg/ml plasminogen, 0.5 μg/ml pro-MMP-3 (Oncogene Research Products), 40 nM PDBu, and the peptides at a 200 μM concentration unless otherwise indicated. Aliquots of the conditioned media were analyzed by gelatin zymography (9). […] The samples were analyzed by gelatin zymography.

pro-MMP-9 [3] = target: T2, pro-MMP-9; assay: Pro-MMP-9 activation in THP-1 cells, zymography; format: cell-based; settings: THP-1, pro-MMP-3 and plasminogen, peptides 200 μM
Protocol: as §2

pro-MMP-9 [4] = target: T2, pro-MMP-9; assay: Activation of purified pro-MMP-9 by MMP-3 in vitro; format: biochemical; settings: 200 μM, 1 h, 37° C.
MMP-9 C domain = target: T3, MMP-9 C domain (Homo sapiens, UniProt P14780); assay: β5 I-EGF2+3 binding assay, MMP-9 C domain
T3 construct: MMP-9 (Asp^494-Asp^688) were expressed as described (16); made in house; host or cells: E. coli (β5 fragment)
T3 sequence (P14780 513-707 limits assumed): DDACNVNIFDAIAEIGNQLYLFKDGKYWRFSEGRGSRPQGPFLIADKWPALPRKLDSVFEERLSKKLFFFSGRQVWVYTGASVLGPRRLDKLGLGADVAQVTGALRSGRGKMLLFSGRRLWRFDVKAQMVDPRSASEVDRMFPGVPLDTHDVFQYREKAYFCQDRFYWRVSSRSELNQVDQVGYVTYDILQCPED
Protocol: B5 I-EGF2+3 binding assay. MMP-9 C domain, MMP-2 C domain, CBD, β5 I-EGF2+3 or vitronectin (2 μg/ml) were immobilized in microtiter wells. Biotinylated β5 I-EGF2+3 fragment (2.5 μg/ml) was added to the wells which were preincubated with the competitors for 30 min in 1% BSA-PBST and then incubated further for one hour. Bound biotinylated protein was detected with streptavidin-peroxidase.

[5] = tested on: HSC-3 tongue squamous cell carcinoma xenografts; assay: Tumor growth in vivo, HSC-3 xenografts
Protocol: Tumor growth in vivo. […] HSC-3 tumors were established by administering 5×10^6 tumor cells in a 100 μl volume in PBS in both flanks of the Hsd:Athymic Nude-nu mice. After three days, the mice received five daily injection of 0.8 mg/ml CRV or the scrambled peptide or the vehicle (PBS) via the tail vein in a 200 μl volume. Three-dimensional caliper measurements were taken twice a week and the tumor volumes calculated. Mice were sacrificed when the tumor volume reached 1000 mm^3. For the staining of the tumor vasculature, 7 μm frozen tissue sections were stained with anti-CD31 antibody (MEC 13.3, BD Biosciences) and anti-rat Alexa Fluor 488 antibodies.

Sequence of trypsin-activated MMP-9 (P14780 107-707 limits assumed): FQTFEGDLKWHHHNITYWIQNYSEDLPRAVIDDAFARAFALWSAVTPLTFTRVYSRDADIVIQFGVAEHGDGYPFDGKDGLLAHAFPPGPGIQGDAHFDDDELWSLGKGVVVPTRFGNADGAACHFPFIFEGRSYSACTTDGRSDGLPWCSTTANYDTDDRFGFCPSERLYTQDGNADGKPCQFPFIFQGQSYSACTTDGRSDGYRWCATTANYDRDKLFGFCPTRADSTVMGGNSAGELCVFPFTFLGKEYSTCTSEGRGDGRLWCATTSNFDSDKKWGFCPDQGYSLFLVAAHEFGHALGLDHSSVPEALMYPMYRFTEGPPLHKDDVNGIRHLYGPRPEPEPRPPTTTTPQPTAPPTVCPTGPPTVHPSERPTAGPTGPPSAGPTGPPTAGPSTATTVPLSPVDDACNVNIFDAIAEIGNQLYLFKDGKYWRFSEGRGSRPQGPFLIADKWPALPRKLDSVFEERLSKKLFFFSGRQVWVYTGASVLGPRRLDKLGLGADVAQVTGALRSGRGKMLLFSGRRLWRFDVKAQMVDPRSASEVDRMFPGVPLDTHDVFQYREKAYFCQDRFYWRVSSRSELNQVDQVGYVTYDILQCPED

## CRVYGPYLLC
trypsin-activated MMP-9
  Inhibition of MMP-9 activity in gelatin degradation assay: did not inhibit
[1]
  Inhibition of MMP-2 activity in gelatin degradation assay: did not inhibit
THP-1 monocytic cells
  Inhibition of THP-1 migration: inhibitory effect
HT1080 cells
  Inhibition of pericellular gelatinolysis: inhibited
αM integrin I domain
  Effect on interaction of MMP-9 with the leukocyte αM integrin I domain: do not affect
pro-MMP-9 [2]
  Inhibition of pro-MMP-9 activation: inhibited pro-MMP-9 activation strongly
pro-MMP-9 [3]
  Effect on pro-MMP-9 activation: blocked
pro-MMP-9 [4]
  Inhibition of activation of purified pro-MMP-9 by MMP-3: did not inhibit
MMP-9 C domain
  Competition of biotinylated β5 I-EGF2+3 binding to the MMP-9 C domain: inhibitable
[5]; after two months
  Survival of the mice: all five CRV-injected mice were alive
[5]; at 31 days, five daily i.v. injections, vs scrambled peptide or PBS
  Inhibition of tumor growth: statistically significant inhibition of tumor growth
[5]; mouse, in vivo
  Kaplan-Meier survival, Log-Rank test p vs. PBS: 0.002
  Kaplan-Meier survival, Log-Rank test p vs. scrambled CRV: 0.003
  Tumor vasculature, CD31 immunostaining: less developed tumor vasculature
